Assay results published in the supplement of paper PMC9170038.

test system: MS2 coat protein; experiment: apparent KD of MS2 coat protein; designed switch direction (-1 OFF switch, 1 ON switch): 1; higher = weaker reporter binding; settings: Eterna round: R98; input ligand: FMN 200 uM
Method: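 RNA-MaP: designed FMN/MS2 RNA switches (84 nt design region) are transcribed on-chip within common flanks and titrated with SNAP-549-labelled MS2 coat protein (about 1-3000 nM) in 100 mM Tris pH 7.5, 80 mM KCl, 4 mM MgCl2, without or with 200 uM FMN. Median apparent KD per design; activation ratio = KD,OFF / KD,ON.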

Point of comparison: “CACGUCCUCACAGGAUAUGCUGGACUUUGUCCAGCAGAAGGGUGAAACAUGAGGAUCACCCAUGUAAGGACGUGUAUAUUUAAU [Denovo 21]”, “apparent KD of MS2 coat protein” value 1470 nM. Against it:
- ACGUUAAUUCGAGGAUAUCGGUGAUUUAUAUUACGAGAAGGCGAUAAUUGUGAACAACUUAUAGACAUGAGGAUCACCCAUGUA [JR_SSNG1_Sub065] — 69-fold lower, 21.3 nM
- GUAACAUGAGGAUCACCCAUGUCGUGCUAGAUGAGUUCUGGUGAGGAUAUACAUGGUAAAUAACUGUAGAAGGCACUGGGUACA [SameState #67 NG3] — 33-fold lower, 44.7 nM
- AAACUUAUCACAGGAUAUUCCUGAGGAUGCCAGGGAGAAGGGUGACUCUUGGGACAUGAGGAUCACCCAUGUUCUGUGGGAAAA [Xeusdior] — 7.7-fold lower, 190 nM
- GUCGAAUUCUUAGGAUAUCGAGUGGAAUACACUCGAGAAGGAAGAUAUACCUGAGGAUCACCCAGGUUAAACUGAACGACAAUA [Same State NG1 - A3C, U17G Submission 7C] — 84-fold lower, 17.6 nM
- UUUAUUUAUUGAGGAUAUGCACAGGAUCACCGUGUAGAAGGCAUCAGGGAGAAGGUGCAGAGGAUCACCCUGUAAGGAUAUCAC [pwkr2 ssNG1 DX.2] — 10-fold lower, 144 nM
- UCACUCACGUUAGGAUAUGGAUCGGAAAACGAUCCAGAAGGAACCUGCAAACCUGAGGAACACCCAGGUUCCAAUAACGAGUGA [SameSame 8 - Jieux - Same State NG 1] — 2-fold lower, 745 nM
- AGCGGUAGGACAGGAUAUGGUGACUUCAAGCGGCCAGAAGGGUCCCGACAUGAGGAUCACCCAUGUCUUCCAGGCAGGAAGCGC [Bequques] — 3.3-fold lower, 443 nM
- GGGUGGGUCACAGGAUAUCCCGUGAGCCACAUGAGGAUCACCCAUGUAUCACGACGAAAGAAGAAGGAGAAGGGUGACCCUGAU [Tibiiste] — 49-fold lower, 29.8 nM
- GGUCCAACAUGAGGAUAUGGCACCUUAUUGGUGCCAGAAGGCGUGUCGAUAGACAUGAGGAUCACCCAUGUAAUAAAUUGGACC [SameState #23 NG1] — 11-fold lower, 138 nM
- UAGUGUUCUCGAGGAUAUGGGUUCCGUUUUAGCCCAGAAGGCGAACAUGAGGAUCACCCAUGUAUGAAUACACAGCAGAAUUGU [Teedri] — 9.6-fold lower, 153 nM
- CGGAUCGCAUGAGGAUAUGGUCAGCUUUGCUGACCAGAAGGCAUGUCAAUAGACAUGAGGAUCACCCAUGUAGUUAAGAUCCGA [Mat - Same State NG 1 - JL Mod - D17] — 32-fold lower, 45.5 nM
- UUUAUUUUUAGAGGAUAUAUAGAGAGAGAGAGAAUAGAAGGCUAAACAUACAUGAACAUGAGGAUCACCCAUGUCACCCAUGUU [Attempt 2] — 43-fold lower, 34.3 nM
- CCGAAUGUCACAGGAUAUGGUCCGGGCACGCGACCAGAAGGGUGAUCUCACAUGAGGAUCACCCAUGUGUAGGCGUUAGACUAC [Dierata] — 7.7-fold lower, 191 nM
- AAAAUAAAAUAAAUUAACAUGAGGAUCACCCAUGUCGCUAGACAGGAUAUAUAAAAUAAAAUAAAGUAGAAGGGUCAAAUAAAA [LRO001_SS NG 3] — 17-fold lower, 88.2 nM
- AAAAUAUAAUAUAUUAACAUGAGGAUCACCCAUGUCGCUAGACAGGAUAUAUAAAAUAAAAUAAAGUAGAAGGGUCAUAUAAUA [LRO003_SS NG 3] — 16-fold lower, 93.9 nM
- UCCGAUGUACAUGAGGAUCACCCAUGUCAUAUGCCCGUGACACAGGAUAUCCAGGGUAGGCCAAAGGAGAAGGGUGAUCCGCGG [Lelete] — 12-fold lower, 122 nM

same assay, conditions: Eterna round: R98; input ligand: none

Point of comparison: “CGGAUCGCAUGAGGAUAUGGUCAGCUUUGCUGACCAGAAGGCAUGUCAAUAGACAUGAGGAUCACCCAUGUAGUUAAGAUCCGA [Mat - Same State NG 1 - JL Mod - D17]”, “apparent KD of MS2 coat protein” value 644 nM. Against it:
- ACGUUAAUUCGAGGAUAUCGGUGAUUUAUAUUACGAGAAGGCGAUAAUUGUGAACAACUUAUAGACAUGAGGAUCACCCAUGUA [JR_SSNG1_Sub065] — 23-fold lower, 28.6 nM
- GUAACAUGAGGAUCACCCAUGUCGUGCUAGAUGAGUUCUGGUGAGGAUAUACAUGGUAAAUAACUGUAGAAGGCACUGGGUACA [SameState #67 NG3] — 4.8-fold lower, 133 nM
- AAACUUAUCACAGGAUAUUCCUGAGGAUGCCAGGGAGAAGGGUGACUCUUGGGACAUGAGGAUCACCCAUGUUCUGUGGGAAAA [Xeusdior] — 3.5-fold lower, 182 nM
- GUCGAAUUCUUAGGAUAUCGAGUGGAAUACACUCGAGAAGGAAGAUAUACCUGAGGAUCACCCAGGUUAAACUGAACGACAAUA [Same State NG1 - A3C, U17G Submission 7C] — 37-fold lower, 17.6 nM
- UUUAUUUAUUGAGGAUAUGCACAGGAUCACCGUGUAGAAGGCAUCAGGGAGAAGGUGCAGAGGAUCACCCUGUAAGGAUAUCAC [pwkr2 ssNG1 DX.2] — 1.7-fold lower, 381 nM
- UCACUCACGUUAGGAUAUGGAUCGGAAAACGAUCCAGAAGGAACCUGCAAACCUGAGGAACACCCAGGUUCCAAUAACGAGUGA [SameSame 8 - Jieux - Same State NG 1] — within 1.5-fold, 839 nM
- AGCGGUAGGACAGGAUAUGGUGACUUCAAGCGGCCAGAAGGGUCCCGACAUGAGGAUCACCCAUGUCUUCCAGGCAGGAAGCGC [Bequques] — 2.7-fold lower, 239 nM
- GGGUGGGUCACAGGAUAUCCCGUGAGCCACAUGAGGAUCACCCAUGUAUCACGACGAAAGAAGAAGGAGAAGGGUGACCCUGAU [Tibiiste] — 16-fold lower, 40.7 nM
- GGUCCAACAUGAGGAUAUGGCACCUUAUUGGUGCCAGAAGGCGUGUCGAUAGACAUGAGGAUCACCCAUGUAAUAAAUUGGACC [SameState #23 NG1] — within 1.5-fold, 467 nM
- UAGUGUUCUCGAGGAUAUGGGUUCCGUUUUAGCCCAGAAGGCGAACAUGAGGAUCACCCAUGUAUGAAUACACAGCAGAAUUGU [Teedri] — 2.7-fold higher, 1750 nM
- UUUAUUUUUAGAGGAUAUAUAGAGAGAGAGAGAAUAGAAGGCUAAACAUACAUGAACAUGAGGAUCACCCAUGUCACCCAUGUU [Attempt 2] — 23-fold lower, 28.3 nM
- CCGAAUGUCACAGGAUAUGGUCCGGGCACGCGACCAGAAGGGUGAUCUCACAUGAGGAUCACCCAUGUGUAGGCGUUAGACUAC [Dierata] — 6.7-fold lower, 96.6 nM
- AAAAUAAAAUAAAUUAACAUGAGGAUCACCCAUGUCGCUAGACAGGAUAUAUAAAAUAAAAUAAAGUAGAAGGGUCAAAUAAAA [LRO001_SS NG 3] — 5.6-fold lower, 114 nM
- AAAAUAUAAUAUAUUAACAUGAGGAUCACCCAUGUCGCUAGACAGGAUAUAUAAAAUAAAAUAAAGUAGAAGGGUCAUAUAAUA [LRO003_SS NG 3] — 11-fold lower, 56.4 nM
- UCCGAUGUACAUGAGGAUCACCCAUGUCAUAUGCCCGUGACACAGGAUAUCCAGGGUAGGCCAAAGGAGAAGGGUGAUCCGCGG [Lelete] — 12-fold lower, 51.8 nM
- CACGUCCUCACAGGAUAUGCUGGACUUUGUCCAGCAGAAGGGUGAAACAUGAGGAUCACCCAUGUAAGGACGUGUAUAUUUAAU [Denovo 21] — 3.4-fold lower, 187 nM

test system: MS2 coat protein; experiment: apparent KD of MS2 coat protein, switch ON state; designed switch direction (-1 OFF switch, 1 ON switch): 1; higher = weaker reporter binding; settings: FMN input: 0 or 200 uM; Eterna round: R93 (includes R88 designs)
Procedure, shortened: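 Designed RNA switches were transcribed on-chip from Illumina sequencing clusters. SNAP-549-labelled MS2 coat protein was titrated onto them in twofold steps from 0.7 or 1.5 nM to 3 µM in 100 mM Tris-HCl pH 7.5, 80 mM KCl, 4 mM MgCl2, either without or with constant ligand. Apparent KD reflects the per-design median of normalised cluster binding-curve fits.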

Point of comparison: “AUAUAUAUAAGGUAGGAUAUACUAAAGUAAACAUGAGGAUCACCCAUGUAAAGAAAGAAACUCAUGUAGAAGGACCAUAUAUAUAU [Ex 6 sub 1]”, “apparent KD of MS2 coat protein” value 24.8 nM. Against it:
- GAAGACAUAGUUCAGGAUAUAGGAAUAGUCACAUGAGGAUCACCCAUGUGCAUUUAUAUGCGCACUUAGAAGGGAGGUAGUUAAU [Mat - Same state - Malcolm Mod - D120] — within 1.5-fold, 28.4 nM
- AAGAAACAUGAGGAUCACCCAUGUAAGAUAAACACAGGAUAUGCGAAAUAAAUAAAUAAAGCAGAAGGGUGAAGAA [Mat - Same State 1 - Tesla mod - D149] — 3.6-fold lower, 6.88 nM
- AGGAAACAUGAGGAUCACCCAUGUAAAAAUAUGGAAGGAUAUGGAAACACGAAAGUGAAACCAGAAGGUCUGAAAA [77%, Mat - Mod of Eli, 20] — within 1.5-fold, 16.6 nM
- AUAAAUAAAGAUCAGGAUAUUAUAAAGAUAACAUGAGGAUCACCCAUGUAAAACAAAAUUAUGGGUAAGAAGGGAUCAAAUAAAU [SS2 M 20] — 1.9-fold higher, 46.9 nM
- GAGAAGGAGAGAGAGGAUAUCCAAAGGAAAACAUGAGGAUCACCCAUGUAAAAGGUAGGAAAUUGGGAGAAGGCUCAAGAGAGAG [salish99-ss2-108(!)] — within 1.5-fold, 33 nM
